For three molecules, Kd and EC50 results are on record in patent publication US20260365758 (published 2026).

One assay has as its target cynomolgus STEAP1 (cynomolgus monkey). Briefly: KinExA, monovalent, live 293 cells.
Assay [1] concerns the target human STEAP1 (human). Briefly: KinExA, monovalent, live 293 cells. (In general: In KinExA the mixture passes briefly over coated beads that capture the unbound partner.)
For assay [2], the target named is human STEAP1 (human). The assay is described as follows: FACS, LNCaP-X1.2 cells, bivalent. A general note: A flow cytometer gives signals particle by particle.
human STEAP1 (human), sequence (chain, as listed by the source): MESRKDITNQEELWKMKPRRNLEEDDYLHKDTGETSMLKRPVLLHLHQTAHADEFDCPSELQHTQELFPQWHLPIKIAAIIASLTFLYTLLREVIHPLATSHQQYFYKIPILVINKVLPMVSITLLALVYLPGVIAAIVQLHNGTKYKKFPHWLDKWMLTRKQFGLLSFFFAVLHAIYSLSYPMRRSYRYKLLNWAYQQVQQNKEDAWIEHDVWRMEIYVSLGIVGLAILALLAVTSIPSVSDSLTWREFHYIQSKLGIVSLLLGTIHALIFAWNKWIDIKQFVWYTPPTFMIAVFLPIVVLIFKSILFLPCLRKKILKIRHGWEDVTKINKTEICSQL

As usually defined, the Kd is the free concentration of one partner at which half of the binding sites on the other are occupied at equilibrium, for simple one-to-one binding. Lower therefore signals higher affinity. The EC50 is the concentration at which the effect is half-maximal.

cynomolgus STEAP1 (cynomolgus monkey), sequence (chain, as listed by the source): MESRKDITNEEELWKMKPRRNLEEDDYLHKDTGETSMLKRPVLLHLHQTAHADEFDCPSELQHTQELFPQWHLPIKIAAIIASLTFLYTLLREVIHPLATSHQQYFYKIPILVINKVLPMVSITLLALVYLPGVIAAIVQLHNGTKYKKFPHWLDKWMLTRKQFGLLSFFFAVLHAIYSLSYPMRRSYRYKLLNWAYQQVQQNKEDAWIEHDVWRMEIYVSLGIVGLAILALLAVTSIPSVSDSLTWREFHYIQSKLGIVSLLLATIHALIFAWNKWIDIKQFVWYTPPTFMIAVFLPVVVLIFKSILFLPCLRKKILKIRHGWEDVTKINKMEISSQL

B1: huAb44.v6.05-40G5c (STEAP1 arm) (antibody, V domains shown)
VH: EVQLVESGGGLVQPGGSLRLSCAASGFTFSDHYMAWVRQAPGKGLVWVSYIDYDGGSTSYGDSVKGRFTISRDNAKSTLYLQMNSLRAEDTAVYYCARRSGFYHVGYAMNAWGQGTTVTVSS
VL: DIVLTQTPLSLSVTPGQPASISCRSSQSLEYSDGYTYLEWYLQKPGQSPQLLIYGVSNRFSGVPDRFSGSGSGTDFTLKISRVEAEDVGVYYCFQATHDPLTFGGGTKVEIK
Turning to B1, the results for the dissociation constant (Kd) with cynomolgus STEAP1 and in the assay with human STEAP1 [1] were 14 nM and 29 nM, respectively.

B2: huAb44.v6.05 (antibody, V domains shown)
VH: EVQLVESGGGLVQPGGSLRLSCAASGFTFSDHYMAWVRQAPGKGLVWVSYIDYDGGSTSYGDSVKGRFTISRDNAKSTLYLQMNSLRAEDTAVYYCARRSGFYHVGYAMNAWGQGTTVTVSS
VL: DIVLTQTPLSLSVTPGQPASISCRSSQSLEYSDGYTYLEWYLQKPGQSPQLLIYGVSNRFSGVPDRFSGSGSGTDFTLKISRVEAEDVGVYYCFQATHDPLTFGGGTKVEIK
B2: the EC50 with human STEAP1 [2] was 1.9 nM.

B3: vandortuzumab (antibody, V domains shown)
VH: EVQLVESGGGLVQPGGSLRLSCAVSGYSITSDYAWNWVRQAPGKGLEWVGYISNSGSTSYNPSLKSRFTISRDTSKNTLYLQMNSLRAEDTAVYYCARERNYDYDDYYYAMDYWGQGTLVTVSS
VL: DIQMTQSPSSLSASVGDRVTITCKSSQSLLYRSNQKNYLAWYQQKPGKAPKLLIYWASTRESGVPSRFSGSGSGTDFTLTISSLQPEDFATYYCQQYYNYPRTFGQGTKVEIK
With B3, the concentration for a half-maximal effect (EC50) in the assay with human STEAP1 [2] was determined as 3.5 nM. This EC50 lies about 1.8-fold higher than the previous one.
